Measurements published in patent US20240093255A1, “BIOSYNTHETIC PRODUCTION OF 2-FUCOSYLLACTOSE” (Conagen Inc., priority 2020, published 2024).

Legend:
[1] = GDP-L-fucose inhibition assay of GMD enzymes (GDP-4-keto-6-deoxymannose detection); type: biochemical; conditions: 350 μM GDP-L-fucose; 1 mM GDP-mannose, 0.5 mg/mL GMD
Method: To test for inhibition, the mutants were expressed and purified as described in Example 7, and assayed at a range of GDP-L-fucose concentrations. The assay conditions were as follows: 50 mM Tris pH 7.5, 1 mM GDP-mannose, 0.5 mM NADP^+, 0.5 mg/mL dehydratase (GMD) enzyme, and 0 μM, 70 μM or 350 μM GDP-L-fucose. The reactions were quenched at 99° C. for 10 minutes, and the enzymes' respective activities were analyzed using the nucleotide sugar LC-MS method by GDP-4-keto-6-deoxymannose detection.

[2] = FutC candidate activity in vitro using the de novo synthesis pathway (2′-FL by HPLC); type: biochemical; conditions: 0.2 mg/mL fucosyltransferase, 1 mM GDP-mannose, 80 mM lactose, room temperature, 16 hours
Method: The final step in the novel path to 2′-FL requires an α-1,2-fucosyltransferase. Various FutC candidates were screened for soluble expression in E. coli and fucosyltransferase activity. The candidate enzymes show different solubilities and enzymatic activity for 2′-FL synthesis. For the candidates that have highly soluble expression, their activity was tested in vitro using the de novo synthesis pathway. The reaction conditions were: 50 mM Tris-HCl pH 8.0, 2 mM NADPH, 0.1 mM NADP^+, 1 mM GDP-mannose, 80 mM lactose, 0.9 mg/mL Ec Gmd (SEQ 11), 0.2 mg/mL Ec WcaG (SEQ ID NO: 7) and 0.2 mg/mL of the fucosyltransferase candidates. The reactions were incubated at room temperature for 16 hours. The reactions were quenched by heating at 99° C. for 10 minutes, and then analyzed by HPLC.

Molecule	retained activity [1]	other results
Hs GMD wild type: GDP-mannose-4,6-dehydratase from Homo sapiens, wild type, SEQ ID NO: 9 (protein, listed as Homo sapiens) MRNVALITGITGQDGSYLAEFLLEKGYEVHGIVRRSSSFNTGRIEHLYKNPQAHIEGNMKLHYGDLTDSTCLVKIINEVKPTEIYNLGAQSHVKISFDLAEYTADVDGVGTLRLLDAVKTCGLINSVKFYQASTSELYGKVQEIPQKETTPFYPRSPYGAAKLYAYWIVVNFREAYNLFAVNGILFNHESPRRGANFVTRKISRSVAKIYLGQLECFSLGNLDAKRDWGHAKDYVEAMWLMLQNDEPEDFVIATGEVHSVREFVEKSFLHIGKTIVWEGKNENEVGRCKETGKVHVTVDLKYYRPTEVDFLQGDCTKAKQKLNWKPRVAFDELVREMVHADVELMRTNPNA	less than 5%	
Hs GMD M4: mutant human GMD targeting the GDP-L-fucose allosteric binding pocket, SEQ ID NO: 85 (protein, Homo sapiens GMD mutant) MRNVALITGITGQDGSYLAEFLLEKGYEVHGIVRRSSSFNTGRIEHLYKNPQAHIEGNMKLHYGDLTDSTCLVKIINEVKPTEIYNLGAQSHVKISFDLAEYTADVDGVGTLRLLDAVKTCGLINSVKFYQASTSELYGKVQEIPQKETTPFYPRSPYGAAKLYAYWIVVNFREAYNLFAVNGILFNHESPRRGANFVTRKISASVAKIYLGQLECFSLGNLDAKRDWGHAKDYVEAMWLMLQNDEPEDFVIATGEVHSVREFVEKSFLHIGKTIVWEGKNENEVGRCKETGKVHVTVDLKYYRPTEVDFLQGDCTKAKQKLNWKPRVAFDELVREMVHADVELMRTNPNA	100%	
Hs GMD M3: mutant human GMD targeting the GDP-L-fucose allosteric binding pocket, SEQ ID NO: 83 (protein, Homo sapiens GMD mutant) MRNVALITGITGQDGSYLAEFLLEKGYEVHGIVRRSSSFNTGRIEHLYKNPQAHIEGNMKLHYGDLTDSTCLVKIINEVKPTEIYNLGAQSHVKISFDLAEYTADVDGVGTLRLLDAVKTCGLINSVKFYQASTSELYGKVQEIPQKETTPFYPRSPYGAAKLYAYWIVVNFREAYNLFAVNGILFNHESPRRGANFVTRAISRSVAKIYLGQLECFSLGNLDAKRDWGHAKDYVEAMWLMLQNDEPEDFVIATGEVHSVREFVEKSFLHIGKTIVWEGKNENEVGRCKETGKVHVTVDLKYYRPTEVDFLQGDCTKAKQKLNWKPRVAFDELVREMVHADVELMRTNPNA	100%	
Hs GMD M2: mutant human GMD targeting the GDP-L-fucose allosteric binding pocket, SEQ ID NO: 81 (protein, Homo sapiens GMD mutant) MRNVALITGITGQDGSYLAEFLLEKGYEVHGIVRRSSSFNTGRIEHLYKNPQAAIEGNMKLHYGDLTDSTCLVKIINEVKPTEIYNLGAQSHVKISFDLAEYTADVDGVGTLRLLDAVKTCGLINSVKFYQASTSELYGKVQEIPQKETTPFYPRSPYGAAKLYAYWIVVNFREAYNLFAVNGILFNHESPRRGANFVTRKISRSVAKIYLGQLECFSLGNLDAKRDWGHAKDYVEAMWLMLQNDEPEDFVIATGEVHSVREFVEKSFLHIGKTIVWEGKNENEVGRCKETGKVHVTVDLKYYRPTEVDFLQGDCTKAKQKLNWKPRVAFDELVREMVHADVELMRTNPNA	80%	
At GMD M4: mutant Arabidopsis thaliana GMD targeting the GDP-L-fucose allosteric binding pocket, SEQ ID NO: 79 (protein, Arabidopsis thaliana GMD mutant) MASENNGSRSDSESITAPKADSTVVEPRKIALITGITGQDGSYLTEFLLGKGYEVHGLIRRSSNFNTQRINHIYIDPHNVNKALMKLHYADLTDASSLRRWIDVIKPDEVYNLAAQSHVAVSFEIPDYTADVVATGALRLLEAVRSHTIDSGRTVKYYQAGSSEMFGSTPPPQSETTPFHPRSPYAASKCAAHWYTVNYREAYGLFACNGILFNHESPRRGENFVTRKITAALGRIKVGLQTKLFLGNLQASRDWGFAGDYVEAMWLMLQQEKPDDYVVATEEGHTVEEFLDVSFGYLGLNWKDYVEIDQRYFRPAEVDNLQGDASKAKEVLGWKPQVGFEKLVKMMVDEDLELAKREKVLVDAGYMDAKQQP	100%	
At GMD M3: mutant Arabidopsis thaliana GMD targeting the GDP-L-fucose allosteric binding pocket, SEQ ID NO: 77 (protein, Arabidopsis thaliana GMD mutant) MASENNGSRSDSESITAPKADSTVVEPRKIALITGITGQDGSYLTEFLLGKGYEVHGLIRRSSNFNTQRINHIYIDPHNVNKALMKLHYADLTDASSLRRWIDVIKPDEVYNLAAQSHVAVSFEIPDYTADVVATGALRLLEAVRSHTIDSGRTVKYYQAGSSEMFGSTPPPQSETTPFHPRSPYAASKCAAHWYTVNYREAYGLFACNGILFNHESPRRGENFVTRAITRALGRIKVGLQTKLFLGNLQASRDWGFAGDYVEAMWLMLQQEKPDDYVVATEEGHTVEEFLDVSFGYLGLNWKDYVEIDQRYFRPAEVDNLQGDASKAKEVLGWKPQVGFEKLVKMMVDEDLELAKREKVLVDAGYMDAKQQP	50%	
At GMD M2: mutant Arabidopsis thaliana GMD targeting the GDP-L-fucose allosteric binding pocket, SEQ ID NO: 75 (protein, Arabidopsis thaliana GMD mutant) MASENNGSRSDSESITAPKADSTVVEPRKIALITGITGQDGSYLTEFLLGKGYEVHGLIRRSSNFNTQRINHIYIDPANVNKALMKLHYADLTDASSLRRWIDVIKPDEVYNLAAQSHVAVSFEIPDYTADVVATGALRLLEAVRSHTIDSGRTVKYYQAGSSEMFGSTPPPQSETTPFHPRSPYAASKCAAHWYTVNYREAYGLFACNGILFNHESPRRGENFVTRKITRALGRIKVGLQTKLFLGNLQASRDWGFAGDYVEAMWLMLQQEKPDDYVVATEEGHTVEEFLDVSFGYLGLNWKDYVEIDQRYFRPAEVDNLQGDASKAKEVLGWKPQVGFEKLVKMMVDEDLELAKREKVLVDAGYMDAKQQP	40%	
FutC5: α-1,2-fucosyltransferase candidate from Lachnospiraceae bacterium XBB2008, SEQ ID NO: 29; parent of ASR12 (protein, Lachnospiraceae bacterium XBB2008, parent of ASR12) MIILQMSGGLGNQMFQYALYLKLKKLGREVKFDDETSYELDNARPVQLAVFDITYPRATRQEVTDMRDSSPAWKDRIRRKLKGRNLKQYTEANYSYDEHVFELDDTYLRGYFQTEKYFSDIRDEIYKTYTMRKDLITEQTTQYEEDILSHENSVSIHIRRGDYMTIEGGEIYAGICTDEFYDSAIKYVLERHPDAVFYLFTNDSSWAEYFCNIHSDVNIHVVEGNTEYFGYLDMYLMSRCKHHIVANSSFSWWGAWLGRDADGMVIAPDPWFNCSNCADIHTDRMILIDPKGELLTDDKGVRNESEE		α-1,2-fucosyltransferase activity for 2′-FL production [2]: have α-1,2-fucosyltransferase activity for 2′-FL production
FutC2: α-1,2-fucosyltransferase candidate from Pisciglobus halotolerans, SEQ ID NO: 23 (protein, Pisciglobus halotolerans) MIYTRITSGLGNQMFQYAIAYSYSRKYDMPLILDLTNFKISKKRTYQLDKFKLNDYKKITFKNAPLEIKIFWLVEVLNMISIKLRKKEMKRKNNYNLKSTQFICEKYKEKYNINFDLTNKSLYLSGFWQSPLYFENYRDELIQQFSPNYVLSNKLKEYETKIINCRSVSVHIRRGDFLQHGLFKDVDYQKKAITYLEKKLDNPIFFFFSDDIEWTKEKFKNQKNCFFVSSDSKNSGIEEMYLMSKCENNIIANSTFSWWGAWLNQNQNKIVIAPSTGFGNKDILPKSWYTI		α-1,2-fucosyltransferase activity for 2′-FL production [2]: have α-1,2-fucosyltransferase activity for 2′-FL production
Ec WT: GDP-mannose-4,6-dehydratase from Escherichia coli, wild type, SEQ ID NO: 11 (protein, listed as Escherichia coli) MSKVALITGVTGQDGSYLAEFLLEKGYEVHGIKRRASSFNTERVDHIYQDPHTCNPKFHLHYGDLSDTSNLTRILREVQPDEVYNLGAMSHVAVSFESPEYTADVDAMGTLRLLEAIRFLGLEKKTRFYQASTSELYGLVQEIPQKETTPFYPRSPYAVAKLYAYWITVNYRESYGMYACNGILFNHESPRRGETFVTRKITRAIANIAQGLESCLYLGNMDSLRDWGHAKDYVKMQWMMLQQEQPEDFVIATGVQYSVRQFVEMAAAQLGIKLRFEGTGVEEKGIVVSVTGHDAPGVKPGDVIIAVDPRYFRPAEVETLLGDPTKAHEKLGWKPEITLREMVSEMVANDLEAAKKHSLLKSHGYDVAIALES		decrease in activity [1]: 80%
FutC10: α-1,2-fucosyltransferase candidate from Thermosynechococcus elongatus, SEQ ID NO: 39 (protein, listed as Thermosynechococcus elongatus) MIIVRLCGGLGNQMFQYAAGLAAAHRIGSEVKFDTHWFDATCLHQGLELRRVFGLELPEPSSKDLRKVLGACVHPAVRRLLSRRLLRALRPKSLVIQPHFHYWTGFEHLTDNVYLEGYWQSERYFSNIADIIRQQFRFVEPLDPHNAALMDEMQSGVSVSLHIRRGDYFNNPQMRRVHGVDLSEYYPAAVATMIEKTNAERFYVFSDDPQWVLEHLKLPVSYTVVDHNRGAASYRDMQLMSACRHHIIANSTFSWWGAWLNPRPDKVVIAPRHWFNVDVFDTRDLYCPEWIVL		α-1,2-fucosyltransferase activity for 2′-FL production [2]: have α-1,2-fucosyltransferase activity for 2′-FL production
